Assay results published in patent US20040014658A1 (PROCHON BIOTECH, published 2004).

Target: L37M-W144G-FGF9 (human, UniProt P31371 38-208)
Assay: ex vivo mouse femur growth with FGFR3 neutralizing Fab MSPRO-59 (inferred)
Experimental: Femoral bone cultures were performed by excising the hind limbs of wild type mice. The limbs were carefully cleaned from the surrounding tissue (skin and muscles) and the femora exposed. The femora were removed and further cleared from tissue remains and ligaments. The femora were measured for their initial length, using a binocular with an eyepiece micrometer ruler. […] In addition, the medium contains BSA (0.2%), β-glycerophosphate (1 mM) and freshly prepared ascorbic acid (50 μg/ml). The bones were cultured for 15 days. Measurements of bone length and medium replacement were performed every three days.

binding result: binds
B1: FGFR3 of wild type mouse femora (receptor)
chain: EPPGPEQRVVRRAAEVPGPEPSQQEQVAFGSGDTVELSCHPPGGAPTGPTVWAKDGTGLVASHRILVGPQRLQVLNASHEDAGVYSCQHRLTRRVLCHFSVRVTDAPSSGDDEDGEDVAEDTGAPYWTRPERMDKKLLAVPAANTVRFRCPAAGNPTPSISWLKNGKEFRGEHRIGGIKLRHQQWSLVMESVVPSDRGNYTCVVENKFGSIRQTYTLDVLERSPHRPILQAGLPANQTAILGSDVEFHCKVYSDAQPHIQWLKHVEVNGSKVGPDGTPYVTVLKTAGANTTDKELEVLSLHNVTFEDAGEYTCLAGNSIGFSHHSAWLVVLPAEEELMETDEAGSVYAGVLSYGVVFFLFILVVAAVILCRLRSPPKKGLGSPTVHKVSRFPLKRQVSLESNSSMNSNTPLVRIARLSSGEGPVLANVSELELPADPKWELSRTRLTLGKPLGEGCFGQVVMAEAIGIDKDRTAKPVTVAVKMLKDDATDKDLSDLVSEMEMMKMIGKHKNIINLLGACTQGGPLYVLVEYAAKGNLREFLRARRPPGMDYSFDACRLPEEQLTCKDLVSCAYQVARGMEYLASQKCIHRDLAARNVLVTEDNVMKIADFGLARDVHNLDYYKKTTNGRLPVKWMAPEALFDRVYTHQSDVWSFGVLLWEIFTPGGPSPYPGIPVEELFKLLKEGHRMDKPASCTHDLYMIMRECWHAVPSQRPTFKQLVEDLDRILTVTSTDEYLDLSVPFEQYSPGGQDTPSSSSSGDDSVFTHDLLPPGPPSNGGPRT
notes: whole, on cells; Endogenous receptor in bone tissue culture
